Laboratory results published in US20250076311A1 (Chugai, published 2025).

T1: soluble mouse FcγRII, His-tagged (mouse, UniProt P08101 30-210, limits assumed)
T1 construct: Captured on the chip through an anti-His antibody
T1 sequence (looked up): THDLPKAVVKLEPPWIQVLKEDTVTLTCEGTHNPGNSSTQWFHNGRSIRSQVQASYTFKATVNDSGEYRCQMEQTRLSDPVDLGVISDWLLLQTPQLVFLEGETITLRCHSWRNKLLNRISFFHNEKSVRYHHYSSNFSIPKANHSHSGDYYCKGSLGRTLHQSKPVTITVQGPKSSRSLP

T2: human FcγRIIb constitutively expressed on MDCK cells (human, UniProt P31994 43-310)
T2 sequence (looked up): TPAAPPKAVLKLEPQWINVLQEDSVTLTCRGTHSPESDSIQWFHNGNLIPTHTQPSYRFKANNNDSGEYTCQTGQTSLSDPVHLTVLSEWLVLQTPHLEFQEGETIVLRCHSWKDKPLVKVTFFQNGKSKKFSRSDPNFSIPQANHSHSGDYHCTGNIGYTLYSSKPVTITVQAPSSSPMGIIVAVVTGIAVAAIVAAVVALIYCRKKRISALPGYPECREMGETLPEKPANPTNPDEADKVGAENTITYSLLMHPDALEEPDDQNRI


Key:
[1] = molecular target: T1, soluble mouse FcγRII, His-tagged; experiment: SPR, mouse FcγRII captured via His-tag, antigen-antibody complex injected, pH 7.4, 25 C
Summary of the method: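 Biacore T200; His-tagged soluble FcγRII captured on an anti-His antibody chip, then antibody–antigen complexes injected. Running buffer 20 mM ACES, 150 mM NaCl, 1.2 mM CaCl₂, 0.05% Tween 20, pH 7.4; regeneration with 10 mM glycine-HCl pH 1.5; all at 25° C.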

[2] = molecular target: T2, human FcγRIIb constitutively expressed …; experiment: cell-based or functional assay

Binder	biacore IC binding (relative, SG1 = 1.00) [1]	celluar uptake (labelled human latent myostatin taken up as antigen-antibody complex) [2]
M103205H795-P1551m/M103202L889-SK1 (antibody, human IgG1, kappa, name in EU numbering, copies: 2 + 2) heavy: QVTLKESGPVLVKPTETLTLTCTVSGIDLSHDDISWVRQAPGKGLEWVGIISYAGSTYYASWAKGRLTISKDTSKNQVVLTMTNMDPVDTATYYCARGVPAYSHGGDLWGQGTLVTVSSASTKGPSVFPLAPSSKSTSGGTAALGCLVKDYFPEPVTVSWNSGALTSGVHTFPAVLQSSGLYSLSSVVTVPSSSLGTQTYICNVNHKPSNTKVDKKVEPKSCDKTHTCPPCPAPELLGGPSVFLFPPKPKDTLMISRTPEVTCVVVDVSHEDPEVKFNWYVDGVEVHNAKTKPREEQYNSTYRVVSVLTVLHRDWLNGKEYKCKVSNKALPAPIEKTISKAKGQPREPQVYTLPPSREEMTKNQVSLTCLVKGFYPSDIAVEWESNGQPRNNYKTTPPVLDSDRSFFLYSKLTVDKSRWQQGNVFSCSVMHEALHNHYTQKSLSLSP light: DIVMTQSPATLSLSPGERATLSCTSSQSVYHANWLSWFQQKPGQPPKLLIYWASTLAYGVPSRFSGSGSGTDFTLTISSLQPEDAATYYCAGGYGGGRYAFGQGTKVEIKRTVAAPSVFIFPPSDEQLKSGTASVVCLLNNFYPREAKVQWKVDNALQSGNSQESVTEQDSKDSTYSLSSTLTLSKADYEKHKVYACEVTHQGLSSPVTKSFNRGEC	1.33 relative to SG1	2.91 relative to SG1 = 1.00
MS1032LO06-P1499m (antibody, human IgG1, kappa, name in EU numbering, also called M103205H795-P1499m) heavy: not shown light: DIVMTQSPATLSLSPGERATLSCTSSQSVYHANWLSWFQQKPGQPPKLLIYWASTLAYGVPSRFSGSGSGTDFTLTISSLQPEDAATYYCAGGYGGGRYAFGQGTKVEIKRTVAAPSVFIFPPSDEQLKSGTASVVCLLNNFYPREAKVQWKVDNALQSGNSQESVTEQDSKDSTYSLSSTLTLSKADYEKHKVYACEVTHQGLSSPVTKSFNRGEC	1.98 relative to SG1	3.61 relative to SG1 = 1.00
MS1032LO06-P1383m (antibody, human IgG1, kappa, name in EU numbering, also called M103205H795-P1383m; copies: 2 + 2) heavy: QVTLKESGPVLVKPTETLTLTCTVSGIDLSHDDISWVRQAPGKGLEWVGIISYAGSTYYASWAKGRLTISKDTSKNQVVLTMTNMDPVDTATYYCARGVPAYSHGGDLWGQGTLVTVSSASTKGPSVFPLAPSSKSTSGGTAALGCLVKDYFPEPVTVSWNSGALTSGVHTFPAVLQSSGLYSLSSVVTVPSSSLGTQTYICNVNHKPSNTKVDKKVEPKSCDKTHTCPPCPAPELLGGPSVFLFPPKPKDTLMISRTPEVTCVVVDVSHEDPEVKFNWYVDGVEVHNAKTKPREEQYNSTYRVVSVLTVLHRDWLNGKEYKCKVSNKALPAPIEKTISKAKGQPREPQVYTLPPSREEMTKNQVSLTCLVKGFYPSDIAVEWESNGQPENNYKTTPPVLDRDGSFFLYSKLTVKKSRWQQGNVFSCSVMHEALHNHYTQKSLSLSP light: DIVMTQSPATLSLSPGERATLSCTSSQSVYHANWLSWFQQKPGQPPKLLIYWASTLAYGVPSRFSGSGSGTDFTLTISSLQPEDAATYYCAGGYGGGRYAFGQGTKVEIKRTVAAPSVFIFPPSDEQLKSGTASVVCLLNNFYPREAKVQWKVDNALQSGNSQESVTEQDSKDSTYSLSSTLTLSKADYEKHKVYACEVTHQGLSSPVTKSFNRGEC	1.41 relative to SG1	5.68 relative to SG1 = 1.00
M103205H795-SG141/M103202L889-SK1 (antibody, human IgG1, kappa, name in EU numbering, copies: 2 + 2) heavy: not shown light: DIVMTQSPATLSLSPGERATLSCTSSQSVYHANWLSWFQQKPGQPPKLLIYWASTLAYGVPSRFSGSGSGTDFTLTISSLQPEDAATYYCAGGYGGGRYAFGQGTKVEIKRTVAAPSVFIFPPSDEQLKSGTASVVCLLNNFYPREAKVQWKVDNALQSGNSQESVTEQDSKDSTYSLSSTLTLSKADYEKHKVYACEVTHQGLSSPVTKSFNRGEC	1.64 relative to SG1	4.42 relative to SG1 = 1.00
M103205H795-P1553m/M103202L889-SK1 (antibody, human IgG1, kappa, name in EU numbering, copies: 2 + 2) heavy: QVTLKESGPVLVKPTETLTLTCTVSGIDLSHDDISWVRQAPGKGLEWVGIISYAGSTYYASWAKGRLTISKDTSKNQVVLTMTNMDPVDTATYYCARGVPAYSHGGDLWGQGTLVTVSSASTKGPSVFPLAPSSKSTSGGTAALGCLVKDYFPEPVTVSWNSGALTSGVHTFPAVLQSSGLYSLSSVVTVPSSSLGTQTYICNVNHKPSNTKVDKKVEPKSCDKTHTCPPCPAPELLGGPSVFLFPPKPKDTLMISRTPEVTCVVVDVSHEDPEVKFNWYVDGVEVHNAKTKPREEQYNSTYRVVSVLTVLHQDWLNGKEYKCKVSNKALPAPIEKTISKAKGQPREPQVYTLPPSREEMTKNQVSLTCLVKGFYPSDIAVEWESNRQPENNYKTTPPVLDSDRSFFLYSKLTVKKSRWQQGNVFSCSVMHEALHNHYTQKSLSLSP light: DIVMTQSPATLSLSPGERATLSCTSSQSVYHANWLSWFQQKPGQPPKLLIYWASTLAYGVPSRFSGSGSGTDFTLTISSLQPEDAATYYCAGGYGGGRYAFGQGTKVEIKRTVAAPSVFIFPPSDEQLKSGTASVVCLLNNFYPREAKVQWKVDNALQSGNSQESVTEQDSKDSTYSLSSTLTLSKADYEKHKVYACEVTHQGLSSPVTKSFNRGEC	1.47 relative to SG1	2.86 relative to SG1 = 1.00
M103205H795-P1552m/M103202L889-SK1 (antibody, human IgG1, kappa, name in EU numbering, copies: 2 + 2) heavy: QVTLKESGPVLVKPTETLTLTCTVSGIDLSHDDISWVRQAPGKGLEWVGIISYAGSTYYASWAKGRLTISKDTSKNQVVLTMTNMDPVDTATYYCARGVPAYSHGGDLWGQGTLVTVSSASTKGPSVFPLAPSSKSTSGGTAALGCLVKDYFPEPVTVSWNSGALTSGVHTFPAVLQSSGLYSLSSVVTVPSSSLGTQTYICNVNHKPSNTKVDKKVEPKSCDKTHTCPPCPAPELLGGPSVFLFPPKPKDTLMISRTPEVTCVVVDVSHEDPEVKFNWYVDGVEVHNAKTKPREEQYNSTYRVVSVLTVLHQDWLNGKEYKCKVSNKALPAPIEKTISKAKGQPREPQVYTLPPSREEMTKNQVSLTCLVKGFYPSDIAVEWESNRQPENNYKTTPPVLDSRGSFFLYSKLTVKKSRWQQGNVFSCSVMHEALHNHYTQKSLSLSP light: DIVMTQSPATLSLSPGERATLSCTSSQSVYHANWLSWFQQKPGQPPKLLIYWASTLAYGVPSRFSGSGSGTDFTLTISSLQPEDAATYYCAGGYGGGRYAFGQGTKVEIKRTVAAPSVFIFPPSDEQLKSGTASVVCLLNNFYPREAKVQWKVDNALQSGNSQESVTEQDSKDSTYSLSSTLTLSKADYEKHKVYACEVTHQGLSSPVTKSFNRGEC	2.19 relative to SG1	4.44 relative to SG1 = 1.00
MS1032LO06-P1378m (antibody, human IgG1, kappa, name in EU numbering, also called M103205H795-P1378m; copies: 2 + 2) heavy: not shown light: DIVMTQSPATLSLSPGERATLSCTSSQSVYHANWLSWFQQKPGQPPKLLIYWASTLAYGVPSRFSGSGSGTDFTLTISSLQPEDAATYYCAGGYGGGRYAFGQGTKVEIKRTVAAPSVFIFPPSDEQLKSGTASVVCLLNNFYPREAKVQWKVDNALQSGNSQESVTEQDSKDSTYSLSSTLTLSKADYEKHKVYACEVTHQGLSSPVTKSFNRGEC	1.23 relative to SG1	3.86 relative to SG1 = 1.00
M103205H795-P1555m/M103202L889-SK1 (antibody, human IgG1, kappa, name in EU numbering, copies: 2 + 2) heavy: QVTLKESGPVLVKPTETLTLTCTVSGIDLSHDDISWVRQAPGKGLEWVGIISYAGSTYYASWAKGRLTISKDTSKNQVVLTMTNMDPVDTATYYCARGVPAYSHGGDLWGQGTLVTVSSASTKGPSVFPLAPSSKSTSGGTAALGCLVKDYFPEPVTVSWNSGALTSGVHTFPAVLQSSGLYSLSSVVTVPSSSLGTQTYICNVNHKPSNTKVDKKVEPKSCDKTHTCPPCPAPELLGGPSVFLFPPKPKDTLMISRTPEVTCVVVDVSHEDPEVKFNWYVDGVEVHNAKTKPREEQYNSTYRVVSVLTVLHQDWLNGKEYKCKVSNKALPAPIEKTISKAKGQPREPQVYTLPPSREEMTKNQVSLTCLVKGFYPSDIAVEWESNGQPRNNYKTTPPVLDSDRSFFLYSKLTVKKSRWQQGNVFSCSVMHEALHNHYTQKSLSLSP light: DIVMTQSPATLSLSPGERATLSCTSSQSVYHANWLSWFQQKPGQPPKLLIYWASTLAYGVPSRFSGSGSGTDFTLTISSLQPEDAATYYCAGGYGGGRYAFGQGTKVEIKRTVAAPSVFIFPPSDEQLKSGTASVVCLLNNFYPREAKVQWKVDNALQSGNSQESVTEQDSKDSTYSLSSTLTLSKADYEKHKVYACEVTHQGLSSPVTKSFNRGEC	2.01 relative to SG1	3.71 relative to SG1 = 1.00
